Test results published in US20260146097A1.

Tests used:
[1] = molecular target: IL2Rs (IL2Rgamma/IL2Rbeta) on preactivated human PBMCs / CD8+ T cells (human) (UniProt P14784); assay: cell-based or functional assay
[2] = molecular target: T1, human IL2Rbeta-Avi protein (R&D Systems) (human) (UniProt P14784); assay: ELISA: variant captured by anti-human IgG-Fc, human IL2Rbeta-Avi, streptavidin-HRP
T1 sequence (looked up): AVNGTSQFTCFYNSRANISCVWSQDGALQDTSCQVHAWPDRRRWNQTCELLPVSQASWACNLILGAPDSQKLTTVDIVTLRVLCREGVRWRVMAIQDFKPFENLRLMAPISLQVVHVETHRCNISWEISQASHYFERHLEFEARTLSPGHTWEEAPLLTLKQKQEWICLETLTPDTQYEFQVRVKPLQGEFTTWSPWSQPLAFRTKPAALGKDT

IgG Control (antibody)
pSTAT5 EMAX (Mean Fluorescence Intensity) (Mean Fluorescence Intensity) [1]: 25000

B1: Wild-type anti-IL2Rbeta VH in the multi-specific format (anti-LAG3 and a single anti-IL2Rgamma/anti-IL2Rbeta unit) (protein, part only; not given: rest of multi-specific format, part only)
VH: EVQLVQSGAEVKKPGACVKISCKVSGYTFTDYYMHWVQRAPGKGLEWIGLVDPEDGETIYAEKFQGRVTITADTSTDTAYMELCSLRSEDTAVYYCATDFVKLDFSLSFQHWGQGTLVTVSS
EC50 [2]: 0.65 µg/mL

B2: Anti-IL2Rbeta VH modification D31K in the multi-specific format (protein, part only; not given: Rest of multi-specific format, not shown: another chain or arm of the molecule; a dimerising Fc or GST; small tags and cut ends)
VH: EVQLVQSGAEVKKPGACVKISCKVSGYTFTKYYMHWVQRAPGKGLEWIGLVDPEDGETIYAEKFQGRVTITADTSTDTAYMELCSLRSEDTAVYYCATDFVKLDFSLSFQHWGQGTLVTVSS
EC50 [2]: 0.4 µg/mL

B3: Anti-IL2Rbeta VH modification D31R in the multi-specific format (protein, part only; not given: Rest of multi-specific format, not shown: another chain or arm of the molecule; a dimerising Fc or GST; small tags and cut ends)
VH: EVQLVQSGAEVKKPGACVKISCKVSGYTFTRYYMHWVQRAPGKGLEWIGLVDPEDGETIYAEKFQGRVTITADTSTDTAYMELCSLRSEDTAVYYCATDFVKLDFSLSFQHWGQGTLVTVSS
EC50 [2]: 0.13 µg/mL

B4: Anti-IL2Rbeta VH modification D31S in the multi-specific format (protein, part only; not given: Rest of multi-specific format, not shown: another chain or arm of the molecule; a dimerising Fc or GST; small tags and cut ends)
VH: EVQLVQSGAEVKKPGACVKISCKVSGYTFTSYYMHWVQRAPGKGLEWIGLVDPEDGETIYAEKFQGRVTITADTSTDTAYMELCSLRSEDTAVYYCATDFVKLDFSLSFQHWGQGTLVTVSS
EC50 [2]: 0.21 µg/mL

B5: Anti-IL2Rbeta VH modification D31Y in the multi-specific format (protein, part only; not given: Rest of multi-specific format, not shown: another chain or arm of the molecule; a dimerising Fc or GST; small tags and cut ends)
VH: EVQLVQSGAEVKKPGACVKISCKVSGYTFTYYYMHWVQRAPGKGLEWIGLVDPEDGETIYAEKFQGRVTITADTSTDTAYMELCSLRSEDTAVYYCATDFVKLDFSLSFQHWGQGTLVTVSS
EC50 [2]: 0.24 µg/mL

B6: Anti-IL2Rbeta VH modification Y32F in the multi-specific format (protein, part only; not given: Rest of multi-specific format, not shown: another chain or arm of the molecule; a dimerising Fc or GST; large carriers; small tags and cut ends)
VH: EVQLVQSGAEVKKPGACVKISCKVSGYTFTDFYMHWVQRAPGKGLEWIGLVDPEDGETIYAEKFQGRVTITADTSTDTAYMELCSLRSEDTAVYYCATDFVKLDFSLSFQHWGQGTLVTVSS
EC50 [2]: 0.24 µg/mL

B7: Anti-IL2Rbeta VH modification Y33F in the multi-specific format (protein, part only; not given: Rest of multi-specific format, not shown: another chain or arm of the molecule; a dimerising Fc or GST; large carriers; small tags and cut ends)
VH: EVQLVQSGAEVKKPGACVKISCKVSGYTFTDYFMHWVQRAPGKGLEWIGLVDPEDGETIYAEKFQGRVTITADTSTDTAYMELCSLRSEDTAVYYCATDFVKLDFSLSFQHWGQGTLVTVSS
EC50 [2]: 0.24 µg/mL

B8: Anti-IL2Rbeta VH modification E53I in the multi-specific format (protein, part only; not given: Rest of multi-specific format, not shown: another chain or arm of the molecule; a dimerising Fc or GST; large carriers; small tags and cut ends)
VH: EVQLVQSGAEVKKPGACVKISCKVSGYTFTDYYMHWVQRAPGKGLEWIGLVDPIDGETIYAEKFQGRVTITADTSTDTAYMELCSLRSEDTAVYYCATDFVKLDFSLSFQHWGQGTLVTVSS
EC50 [2]: 0.3 µg/mL

B9: Anti-IL2Rbeta VH modification E53S in the multi-specific format (protein, part only; not given: Rest of multi-specific format, not shown: another chain or arm of the molecule; a dimerising Fc or GST; large carriers; small tags and cut ends)
VH: EVQLVQSGAEVKKPGACVKISCKVSGYTFTDYYMHWVQRAPGKGLEWIGLVDPSDGETIYAEKFQGRVTITADTSTDTAYMELCSLRSEDTAVYYCATDFVKLDFSLSFQHWGQGTLVTVSS
EC50 [2]: 0.3 µg/mL
